This note sets out measurements from US20220089663A1, “PROTEINS AND FLUOROPHORE-CONTAINING COMPOUNDS SELECTIVE FOR NaV1.7” (MEMORIAL SLOAN KETTERING CANCER CENTER, priority 2019, published 2022).

Read-outs that look alike come from different tables or passages of the source.

Targets include hNav1.5 (human), Q14524; Cav1.3; hNav1.1 (human), P35498; Kv2.1; Nav1.9; Cav1.1; hNav1.2 (human), Q99250; Nav1.8; hNav1.4 (human), P35499; hNav1.3 (human), Q9NY46; Cav2.2.
Experiment in all cases: cell-based or functional assay
The target in assay [1] is hNav1.6 (human), Q9UQD0.
Another assay deals with T1, hERG, Q12809.
T1 chain: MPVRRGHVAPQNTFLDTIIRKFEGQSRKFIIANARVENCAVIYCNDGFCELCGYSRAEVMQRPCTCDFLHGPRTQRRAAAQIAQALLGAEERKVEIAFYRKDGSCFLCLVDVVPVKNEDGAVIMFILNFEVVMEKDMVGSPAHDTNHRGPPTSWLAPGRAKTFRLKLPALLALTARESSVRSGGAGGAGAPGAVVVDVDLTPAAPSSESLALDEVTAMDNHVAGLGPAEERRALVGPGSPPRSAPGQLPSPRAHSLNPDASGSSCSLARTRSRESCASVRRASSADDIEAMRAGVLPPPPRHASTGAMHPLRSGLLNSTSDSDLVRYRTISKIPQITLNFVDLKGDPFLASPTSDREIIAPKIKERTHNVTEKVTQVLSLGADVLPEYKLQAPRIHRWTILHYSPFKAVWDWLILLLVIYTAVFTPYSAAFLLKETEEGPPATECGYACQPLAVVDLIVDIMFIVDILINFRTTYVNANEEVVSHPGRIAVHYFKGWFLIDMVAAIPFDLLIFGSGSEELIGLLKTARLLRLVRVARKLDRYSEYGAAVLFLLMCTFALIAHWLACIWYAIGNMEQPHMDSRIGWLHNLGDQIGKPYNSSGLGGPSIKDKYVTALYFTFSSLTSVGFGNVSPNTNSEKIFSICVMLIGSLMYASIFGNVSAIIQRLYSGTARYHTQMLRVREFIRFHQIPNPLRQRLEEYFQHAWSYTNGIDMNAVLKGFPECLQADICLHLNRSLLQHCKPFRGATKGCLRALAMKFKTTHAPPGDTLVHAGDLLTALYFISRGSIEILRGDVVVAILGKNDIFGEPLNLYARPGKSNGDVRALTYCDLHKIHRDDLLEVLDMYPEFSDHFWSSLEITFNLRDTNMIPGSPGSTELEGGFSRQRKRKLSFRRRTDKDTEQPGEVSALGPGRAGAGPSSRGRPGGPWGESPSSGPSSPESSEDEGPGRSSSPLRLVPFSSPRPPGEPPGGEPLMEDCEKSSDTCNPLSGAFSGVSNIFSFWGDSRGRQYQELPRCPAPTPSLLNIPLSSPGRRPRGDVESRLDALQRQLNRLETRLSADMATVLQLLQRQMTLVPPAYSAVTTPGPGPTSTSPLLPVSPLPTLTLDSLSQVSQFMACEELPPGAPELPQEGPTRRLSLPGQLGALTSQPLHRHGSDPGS

For assay [2], the target named is hNav1.7 (human), Q15858.
For assay [3], the target named is hNav1.6 (human), Q9UQD0. This is another data set of the same source.
Assay [4] deals with hNav1.7 (human), Q15858. The source holds these as a separate data set.

Consider GNDCLGFWSACNPKNDKCCANLVCSSKHKWCKGKL (modifications not checked) [Hs1a], for which the IC50, automated patch clamp is greater than 3000 nM with hNav1.5 (human), Q14524; 19.4 nM in the assay with hNav1.1 (human), P35498; 168 nM with hNav1.6 (human), Q9UQD0 [1]; 82.2 nM in the assay with hNav1.2 (human), Q99250; greater than 3000 nM with hNav1.4 (human), P35499; 107 nM with hNav1.3 (human), Q9NY46. For the same molecule, the IC50, automated patch clamp with hNav1.7 (human), Q15858 [2] is 45.7 nM; with hNav1.6 (human), Q9UQD0 [3], 19.2 nM; in the assay with hNav1.7 (human), Q15858 [4], 26.9 nM. For the same molecule, the IC50 – broadly, the concentration needed to halve the response being measured – in the assay with Cav1.3 was greater than 3000 nM; in the assay with Kv2.1 it was greater than 3000 nM; with Nav1.9, greater than 3000 nM; with Cav1.1 it was greater than 3000 nM; in the assay with Nav1.8, greater than 3000 nM; with hERG, Q12809, greater than 3000 nM. Further, the IC50 in the assay with Cav2.2 was greater than 3000 nM.
On to GNDCLGFWSACNPKNDKCCANLVCSSKHKWCKGKL (modifications not checked) [Hs1a-FL], for which the IC50, patch clamp on HEK293 cells in the assay with hNav1.5 (human), Q14524 is greater than 3000 nM; with hNav1.1 (human), P35498 it was 19.4 nM; in the assay with hNav1.6 (human), Q9UQD0 [1], 19.2 nM; with hNav1.2 (human), Q99250, 81.2 nM; with hNav1.4 (human), P35499, greater than 3000 nM; in the assay with hNav1.3 (human), Q9NY46 it was 107 nM. Also, in the assay with hNav1.7 (human), Q15858 [2], the IC50, patch clamp on HEK293 cells is 26.9 nM.
With YCQKFLWTCDSERPCCEGLVCRLWCKIN (modifications not checked) [Hsp1a-FL], in the assay with hNav1.7 (human), Q15858 [2], the IC50, automated whole-cell patch clamp was determined as 62 nM.
